From the supplement of paper PMC10567573 come the findings set out here.

B1: TRIM63 (parent)
chain: FRCPTCRHEVIMDRHGVYGLQRNL
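Note: lentivirally expressed fusions sorted by FACS into six bins by GFP to DsRed ratio, PSI derived from sequencing read proportions per bin multiplied by bin number.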

This data set covers variants of B1. Kind of data set: protein stability index of a GFP-peptide fusion (GPS, HEK-293T) (PSI 1-6); higher = more stable. The settings on record: c terminus: a fixed tail appended.
For FRCPTCRPEVIMDRHGVYGLQRNL [H8P], the protein stability index was 3.14.

As for FRCPTCRNEVIMDRHGVYGLQRNL [H8N], the protein stability index was determined as 2.24.

With FRCPTCRSEVIMDRHGVYGLQRNL [H8S], the protein stability index was 1.96.

Regarding FRCPTCRLEVIMDRHGVYGLQRNL [H8L], the protein stability index worked out at 2.39.

As for FRCPTCRQEVIMDRHGVYGLQRNL [H8Q], the protein stability index is 1.91.

Regarding FRCPTCRWEVIMDRHGVYGLQRNL [H8W], the protein stability index is 1.72.

In the case of FRCPTCRMEVIMDRHGVYGLQRNL [H8M], the protein stability index worked out at 3.58.

Consider FRCPTCRHEVIYDRHGVYGLQRNL [M12Y], for which the protein stability index was found to be 1.73.

As to FRCPTCRHEVIRDRHGVYGLQRNL [M12R], the protein stability index was 2.11.

As to FRCPTCRHEVIIDRHGVYGLQRNL [M12I], the protein stability index was 3.22.

Consider FRCPTCRHEVILDRHGVYGLQRNL [M12L], for which the protein stability index was 2.66.

For FRCPTCRHEVIPDRHGVYGLQRNL [M12P], the protein stability index came to 1.62.

FRCPTCRHEVIEDRHGVYGLQRNL [M12E]: the protein stability index came to 2.19.

Turning to FRCPTCRHEVITDRHGVYGLQRNL [M12T], the protein stability index came to 2.59.

As to FRCPTCRHEVIDDRHGVYGLQRNL [M12D], the protein stability index is 1.99.

For FRCPTCRHEVIWDRHGVYGLQRNL [M12W], the protein stability index worked out at 2.17.

FRCPTCRHEVIVDRHGVYGLQRNL [M12V]: the protein stability index was 2.98.

On to FRCPTCRHEVIQDRHGVYGLQRNL [M12Q], for which the protein stability index worked out at 2.29.

FRCPTCRHEVIADRHGVYGLQRNL [M12A]: the protein stability index worked out at 2.35.

As for FRCPTCRHEVISDRHGVYGLQRNL [M12S], the protein stability index was found to be 3.59.

Consider FRCPTCRHEVIHDRHGVYGLQRNL [M12H], for which the protein stability index worked out at 2.06.

Take FRCPTCRHEVIGDRHGVYGLQRNL [M12G]: the protein stability index is 2.8.

On to FRCPTCRHEVICDRHGVYGLQRNL [M12C], for which the protein stability index is 2.02.

In the case of FRCPTCRHEVIFDRHGVYGLQRNL [M12F], the protein stability index was found to be 2.18.

For FRCPTCRHEVIMDRHWVYGLQRNL [G16W], the protein stability index was 2.31.

For FRCPTCRHEVIMDRHCVYGLQRNL [G16C], the protein stability index was found to be 2.42.

With FRCPTCRHEVIMDRHIVYGLQRNL [G16I], the protein stability index stood at 2.15.

For the variant FRCPTCRHEVIMDRHEVYGLQRNL [G16E], the protein stability index was 1.87.

FRCPTCRHEVIMDRHLVYGLQRNL [G16L]: the protein stability index amounted to 2.21.

Consider FRCPTCRHEVIMDRHVVYGLQRNL [G16V], for which the protein stability index amounted to 1.69.

For FRCPTCRHEVIMDRHTVYGLQRNL [G16T], the protein stability index stood at 1.65.

With FRCPTCRHEVIMDRHMVYGLQRNL [G16M], the protein stability index stood at 2.15.

For FRCPTCRHEVIMDRHFVYGLQRNL [G16F], the protein stability index was found to be 2.65.

Take FRCPTCRHEVIMDRHYVYGLQRNL [G16Y]: the protein stability index turned out to be 2.49.

On to FRCPTCRHEVIMDRHRVYGLQRNL [G16R], for which the protein stability index stood at 1.83.

As for FRCPTCRHEVIMDRHSVYGLQRNL [G16S], the protein stability index came to 1.97.

Turning to FRCPTCRHEVIMDRHQVYGLQRNL [G16Q], the protein stability index was found to be 2.33.

As for FRCPTCRHEVIMDRHHVYGLQRNL [G16H], the protein stability index worked out at 2.34.

FRCPTCRHEVIMDRHNVYGLQRNL [G16N]: the protein stability index came out at 2.2.

Take FRCPTCRHEVIMDRHPVYGLQRNL [G16P]: the protein stability index stood at 2.25.

FRCPTCRHEVIMDRHDVYGLQRNL [G16D]: the protein stability index stood at 2.47.

Regarding FRCPTCRHEVIMDRHKVYGLQRNL [G16K], the protein stability index came out at 2.39.

For FRCPTCRHEVIMDRHAVYGLQRNL [G16A], the protein stability index was 2.15.

For FRCPTCRHEVIMDRHGVKGLQRNL [Y18K], the protein stability index was determined as 1.98.

With FRCPTCRHEVIMDRHGVHGLQRNL [Y18H], the protein stability index was determined as 1.87.

FRCPTCRHEVIMDRHGVFGLQRNL [Y18F]: the protein stability index stood at 2.13.

For FRCPTCRHEVIMDRHGVEGLQRNL [Y18E], the protein stability index is 3.06.

For the variant FRCPTCRHEVIMDRHGVQGLQRNL [Y18Q], the protein stability index is 3.53.

With FRCPTCRHEVIMDRHGVPGLQRNL [Y18P], the protein stability index was 2.23.

FRCPTCRHEVIMDRHGVIGLQRNL [Y18I]: the protein stability index turned out to be 1.86.

FRCPTCRHEVIMDRHGVLGLQRNL [Y18L]: the protein stability index came out at 2.54.

On to FRCPTCRHEVIMDRHGVMGLQRNL [Y18M], for which the protein stability index came out at 3.62.

Turning to FRCPTCRHEVIMDRHGVDGLQRNL [Y18D], the protein stability index amounted to 1.73.

On to FRCPTCRHEVIMDRHGVGGLQRNL [Y18G], for which the protein stability index is 2.31.

With FRCPTCRHEVIMDRHGVAGLQRNL [Y18A], the protein stability index worked out at 1.98.

For the variant FRCPTCRHEVIMDRHGVCGLQRNL [Y18C], the protein stability index is 2.06.

In the case of FRCPTCRHEVIMDRHGTYGLQRNL [V17T], the protein stability index came to 2.66.

Consider FRCPTCRHEVIMDRHGWYGLQRNL [V17W], for which the protein stability index was determined as 1.8.

Regarding FRCPTCRHEVIMDRHGGYGLQRNL [V17G], the protein stability index is 3.09.

As to FRCPTCRHEVIMDRHGEYGLQRNL [V17E], the protein stability index amounted to 1.43.

Regarding FRCPTCRHEVIMDRHGMYGLQRNL [V17M], the protein stability index came out at 1.69.

FRCPTCRHEVIMDRHGFYGLQRNL [V17F]: the protein stability index is 2.75.

In the case of FRCPTCRHEVIMDRHGQYGLQRNL [V17Q], the protein stability index was found to be 3.

For FRCPTCRHEVIMDRHGIYGLQRNL [V17I], the protein stability index came out at 2.41.

For the variant FRCPTCRHEVIMDRHGYYGLQRNL [V17Y], the protein stability index came out at 2.19.

As to FRCPTCRHEVIMDRHGDYGLQRNL [V17D], the protein stability index worked out at 1.58.

For the variant FRCPTCRHEVIMDRHGNYGLQRNL [V17N], the protein stability index is 2.28.

As for FRCPTCRHEVIMDRHGSYGLQRNL [V17S], the protein stability index is 2.77.

For the variant FRCPTCRHEVIMDRHGKYGLQRNL [V17K], the protein stability index was 2.19.

As for FRCPTCRHEVIMDRHGLYGLQRNL [V17L], the protein stability index was found to be 2.08.

Consider FRCPTCRHEVIMDRHGCYGLQRNL [V17C], for which the protein stability index was determined as 2.47.

With FRCPTCRHEVIMDRHGRYGLQRNL [V17R], the protein stability index stood at 1.53.

On to FRCPTCRHEVIMDRHGPYGLQRNL [V17P], for which the protein stability index was 2.26.

As for FRCPTCRHEVIMDRHGAYGLQRNL [V17A], the protein stability index came to 2.98.

On to FRCPTCRHEVIMDRHGHYGLQRNL [V17H], for which the protein stability index was determined as 2.23.

FRCPTCRHEVIMDPHGVYGLQRNL [R14P]: the protein stability index was determined as 2.05.

For FRCPTCRHEVIMDAHGVYGLQRNL [R14A], the protein stability index was determined as 1.99.

For FRCPTCRHEVIMDYHGVYGLQRNL [R14Y], the protein stability index is 1.95.

As for FRCPTCRHEVIMDQHGVYGLQRNL [R14Q], the protein stability index was found to be 2.52.

On to FRCPTCRHEVIMDEHGVYGLQRNL [R14E], for which the protein stability index stood at 3.1.

As for FRCPTCRHEVIMDFHGVYGLQRNL [R14F], the protein stability index turned out to be 1.7.

Consider FRCPTCRHEVIMDKHGVYGLQRNL [R14K], for which the protein stability index was 2.07.

Take FRCPTCRHEVIMDDHGVYGLQRNL [R14D]: the protein stability index was 2.5.

With FRCPTCRHEVIMDSHGVYGLQRNL [R14S], the protein stability index was 3.39.

In the case of FRCPTCRHEVIMDNHGVYGLQRNL [R14N], the protein stability index came to 2.16.

For the variant FRCPTCRHEVIMDMHGVYGLQRNL [R14M], the protein stability index was determined as 1.91.

With FRCPTCRHEVIMDGHGVYGLQRNL [R14G], the protein stability index turned out to be 2.01.

Consider FRCPTCRHEVIMDIHGVYGLQRNL [R14I], for which the protein stability index is 1.96.

Take FRCPTCRHEVIMDCHGVYGLQRNL [R14C]: the protein stability index worked out at 1.63.

For the variant FRCPTCRHEVIMDWHGVYGLQRNL [R14W], the protein stability index was 1.72.

As for FRCPTCRHEVIMDVHGVYGLQRNL [R14V], the protein stability index turned out to be 1.54.

Turning to FRCPTCRHEVIMDTHGVYGLQRNL [R14T], the protein stability index was determined as 2.29.

For the variant FRCPTCRHEVIMDHHGVYGLQRNL [R14H], the protein stability index worked out at 1.71.

Turning to FRCPTCRHEVIMDLHGVYGLQRNL [R14L], the protein stability index stood at 2.05.
